For series [1], the target named is T1, ANT2 rationally-designed meganuclease (I-CreI derivative).
T1 chain: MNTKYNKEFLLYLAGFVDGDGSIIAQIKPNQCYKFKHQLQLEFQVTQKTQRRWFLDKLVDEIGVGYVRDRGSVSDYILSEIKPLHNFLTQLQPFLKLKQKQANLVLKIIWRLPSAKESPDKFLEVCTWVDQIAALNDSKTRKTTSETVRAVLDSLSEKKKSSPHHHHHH

Series [2] deals with T2, LAM2 variant in which glutamic acids at positions 8 and 61 were changed to lysine.
T2 chain: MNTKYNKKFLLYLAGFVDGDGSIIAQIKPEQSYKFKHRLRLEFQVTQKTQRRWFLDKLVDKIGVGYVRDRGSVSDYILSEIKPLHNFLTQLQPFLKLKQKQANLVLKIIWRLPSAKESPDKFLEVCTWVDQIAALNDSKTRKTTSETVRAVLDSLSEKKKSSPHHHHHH

In series [3] the target is T3, ACH2 rationally-designed meganuclease (I-CreI derivative).
T3 chain: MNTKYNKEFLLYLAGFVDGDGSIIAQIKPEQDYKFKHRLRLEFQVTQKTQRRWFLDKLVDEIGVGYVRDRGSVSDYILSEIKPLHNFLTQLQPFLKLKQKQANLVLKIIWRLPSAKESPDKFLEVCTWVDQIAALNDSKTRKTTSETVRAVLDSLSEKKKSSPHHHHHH

Series [4] has as its target T4, MGC2 rationally-designed meganuclease (I-CreI derivative).
T4 chain: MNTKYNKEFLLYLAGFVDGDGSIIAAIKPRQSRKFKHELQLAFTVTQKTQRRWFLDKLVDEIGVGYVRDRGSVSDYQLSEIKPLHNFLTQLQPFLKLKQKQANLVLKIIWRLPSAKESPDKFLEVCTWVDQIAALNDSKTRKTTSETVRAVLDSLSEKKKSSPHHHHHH

Series [5] concerns the target T5, HGH2 rationally-designed meganuclease (I-CreI derivative; partner of CYP, half-site SEQ ID NO: 76).
T5 chain: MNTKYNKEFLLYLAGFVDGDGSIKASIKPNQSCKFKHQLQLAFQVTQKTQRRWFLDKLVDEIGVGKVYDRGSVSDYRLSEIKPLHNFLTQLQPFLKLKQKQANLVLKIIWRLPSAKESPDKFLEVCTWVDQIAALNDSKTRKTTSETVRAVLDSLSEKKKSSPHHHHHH

The target of series [6] is T6, HGH2 rationally-designed meganuclease (I-CreI derivative; partner of HGH1, half-site SEQ ID NO: 56).
T6 chain: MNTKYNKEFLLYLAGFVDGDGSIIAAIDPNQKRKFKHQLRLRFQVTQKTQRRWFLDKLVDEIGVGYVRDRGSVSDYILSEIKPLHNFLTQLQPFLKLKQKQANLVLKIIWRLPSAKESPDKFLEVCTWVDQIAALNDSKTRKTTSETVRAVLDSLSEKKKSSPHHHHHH

Series [7] concerns the target T7, URA2 rationally-designed meganuclease (I-CreI derivative).
T7 chain: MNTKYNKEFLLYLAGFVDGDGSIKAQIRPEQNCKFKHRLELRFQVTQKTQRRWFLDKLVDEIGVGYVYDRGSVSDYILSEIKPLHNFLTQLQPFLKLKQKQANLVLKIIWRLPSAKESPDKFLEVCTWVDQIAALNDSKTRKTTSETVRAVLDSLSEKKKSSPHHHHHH

Series [8] concerns the target T8, CF2 rationally-designed meganuclease (I-CreI derivative).
T8 chain: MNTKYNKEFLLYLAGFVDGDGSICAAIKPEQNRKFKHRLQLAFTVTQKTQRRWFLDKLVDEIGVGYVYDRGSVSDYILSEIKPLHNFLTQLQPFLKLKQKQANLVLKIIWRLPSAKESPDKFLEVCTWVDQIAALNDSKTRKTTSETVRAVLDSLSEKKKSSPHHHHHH

Series [9] has as its target T9, LAM2 rationally-designed meganuclease (I-CreI derivative).
T9 chain: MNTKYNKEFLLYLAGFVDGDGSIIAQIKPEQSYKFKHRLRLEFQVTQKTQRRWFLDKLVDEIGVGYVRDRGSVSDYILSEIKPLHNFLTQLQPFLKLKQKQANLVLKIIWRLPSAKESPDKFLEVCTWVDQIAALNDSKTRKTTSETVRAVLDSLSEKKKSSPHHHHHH

For series [10], the target named is T10, PDX2 rationally-designed meganuclease (I-CreI derivative).
T10 chain: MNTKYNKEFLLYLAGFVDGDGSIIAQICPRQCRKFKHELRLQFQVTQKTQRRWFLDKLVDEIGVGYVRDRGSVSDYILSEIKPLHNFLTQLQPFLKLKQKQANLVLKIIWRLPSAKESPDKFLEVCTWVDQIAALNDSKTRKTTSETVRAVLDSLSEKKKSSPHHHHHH

Series [11] has as its target T11, GLA2 rationally-designed meganuclease (I-CreI derivative).
T11 chain: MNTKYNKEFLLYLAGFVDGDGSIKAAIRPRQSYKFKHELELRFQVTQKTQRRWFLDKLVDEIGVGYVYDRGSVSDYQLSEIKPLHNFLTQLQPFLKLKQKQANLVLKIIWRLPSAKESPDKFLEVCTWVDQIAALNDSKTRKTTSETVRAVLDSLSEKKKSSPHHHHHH

For series [12], the target named is T12, BRP2 rationally-designed meganuclease (I-CreI derivative).
T12 chain: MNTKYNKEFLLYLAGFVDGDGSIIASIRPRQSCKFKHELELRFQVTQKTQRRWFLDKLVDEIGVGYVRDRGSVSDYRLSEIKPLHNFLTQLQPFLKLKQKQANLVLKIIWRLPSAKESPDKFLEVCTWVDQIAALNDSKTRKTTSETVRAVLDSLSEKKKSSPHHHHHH

B1: ANT1 rationally-designed meganuclease (I-CreI derivative) (protein)
chain: MNTKYNKEFLLYLAGFVDGDGSIIAQIAPNQNCKFKHQLQLRFQVTQKTQRRWFLDKLVDEIGVGYVRDRGSVSDYILSEIKPLHNFLTQLQPFLKLKQKQANLVLKIIWRLPSAKESPDKFLEVCTWVDQIAALNDSKTRKTTSETVRAVLDSLSEKKKSSPHHHHHH
On to B1, for which the “cleavage of a linearized DNA substrate containing the intended non-palindromic recognition sequence by the 1:1 mixture” value in [1] is on record as “each rationally-designed meganuclease heterodimer cleaves its intended DNA site”.

B2: LAM1 variant in which lysines at positions 7, 57 and 96 were changed to glutamic acids (protein)
chain: MNTKYNEEFLLYLAGFVDGDGSIIAQIDPRQCRKFKHELRLRFQVTQKTQRRWFLDELVDEIGVGYVRDRGSVSDYILSEIKPLHNFLTQLQPFLELKQKQANLVLKIIWRLPSAKESPDKFLEVCTWVDQIAALNDSKTRKTTSETVRAVLDSLSEKKKSSPHHHHHH
B2: the “cleavage of the LAM1/LAM2 hybrid site against the two palindromic sites by the co-expressed interface variants” value in [2] is on record as “the LAM1/LAM2 hybrid site was found to be cleaved preferentially over the two palindromic sites”.

B3: ACH1 rationally-designed meganuclease (I-CreI derivative) (protein)
chain: MNTKYNKEFLLYLAGFVDGDGSIIAAIDPEQDCKFKHRLRLRFQVTQKTQRRWFLDKLVDEIGVGYVRDRGSVSDYQLSEIKPLHNFLTQLQPFLKLKQKQANLVLKIIWRLPSAKESPDKFLEVCTWVDQIAALNDSKTRKTTSETVRAVLDSLSEKKKSSPHHHHHH
Turning to B3, in series [3], the “cleavage of a linearized DNA substrate containing the intended non-palindromic recognition sequence by the 1:1 mixture” value is on record as “each rationally-designed meganuclease heterodimer cleaves its intended DNA site”.

B4: MGC1 rationally-designed meganuclease (I-CreI derivative) (protein)
chain: MNTKYNKEFLLYLAGFVDGDGSIKAQIKPNQCYKFKHQLQLAFQVTQKTQRRWFLDKLVDEIGVGYVYDRGSVSDYILSEIKPLHNFLTQLQPFLKLKQKQANLVLKIIWRLPSAKESPDKFLEVCTWVDQIAALNDSKTRKTTSETVRAVLDSLSEKKKSSPHHHHHH
Regarding B4, the “cleavage of a linearized DNA substrate containing the intended non-palindromic recognition sequence by the 1:1 mixture” value in [4] was “each rationally-designed meganuclease heterodimer cleaves its intended DNA site”.

B5: CYP rationally-designed meganuclease (I-CreI derivative) (protein)
chain: MNTKYNKEFLLYLAGFVDGDGSIIAAIKPNQDYKFKHQLRLAFQVTQKTQRRWFLDKLVDEIGVGYVYDRGSVSDYQLSEIKPLHNFLTQLQPFLKLKQKQANLVLKIIWRLPSAKESPDKFLEVCTWVDQIAALNDSKTRKTTSETVRAVLDSLSEKKKSSPHHHHHH
In the case of B5, in series [5], the “cleavage of a linearized DNA substrate containing the intended non-palindromic recognition sequence by the 1:1 mixture” value is given as “each rationally-designed meganuclease heterodimer cleaves its intended DNA site”.

B6: HGH1 rationally-designed meganuclease (I-CreI derivative) (protein)
chain: MNTKYNKEFLLYLAGFVDGDGSIIAQIDPNQDCKFKHQLRLRFQVTQKTQRRWFLDKLVDEIGVGYVRDRGSVSDYILSEIKPLHNFLTQLQPFLKLKQKQANLVLKIIWRLPSAKESPDKFLEVCTWVDQIAALNDSKTRKTTSETVRAVLDSLSEKKKSSPHHHHHH
For B6, the “cleavage of a linearized DNA substrate containing the intended non-palindromic recognition sequence by the 1:1 mixture” value in [6] is listed as “each rationally-designed meganuclease heterodimer cleaves its intended DNA site”.

B7: URA1 rationally-designed meganuclease (I-CreI derivative) (protein)
chain: MNTKYNKEFLLYLAGFVDGDGSIIAQIKPNQSCKFKHQLRLAFTVTQKTQRRWFLDKLVDEIGVGYVRDRGSVSDYILSEIKPLHNFLTQLQPFLKLKQKQANLVLKIIWRLPSAKESPDKFLEVCTWVDQIAALNDSKTRKTTSETVRAVLDSLSEKKKSSPHHHHHH
B7: the “cleavage of a linearized DNA substrate containing the intended non-palindromic recognition sequence by the 1:1 mixture” value in [7] is on record as “each rationally-designed meganuclease heterodimer cleaves its intended DNA site”.

B8: CF1 rationally-designed meganuclease (I-CreI derivative) (protein)
chain: MNTKYNKEFLLYLAGFVDGDGSICAQIKPNQSYKFKHQLQLAFQVTQKTQRRWFLDKLVDEIGVGYVHDRGSVSDYILSEIKPLHNFLTQLQPFLKLKQKQANLVLKIIWRLPSAKESPDKFLEVCTWVDQIAALNDSKTRKTTSETVRAVLDSLSEKKKSSPHHHHHH
As to B8, the “cleavage of a linearized DNA substrate containing the intended non-palindromic recognition sequence by the 1:1 mixture” value in series [8] was “each rationally-designed meganuclease heterodimer cleaves its intended DNA site”.

B9: LAM1 rationally-designed meganuclease (I-CreI derivative) (protein)
chain: MNTKYNKEFLLYLAGFVDGDGSIIAQIDPRQCRKFKHELRLRFQVTQKTQRRWFLDKLVDEIGVGYVRDRGSVSDYILSEIKPLHNFLTQLQPFLKLKQKQANLVLKIIWRLPSAKESPDKFLEVCTWVDQIAALNDSKTRKTTSETVRAVLDSLSEKKKSSPHHHHHH
Take B9: in series [9], the “cleavage of the non-palindromic LAM1/LAM2 hybrid DNA site by a 1:1 mixture incubated at 42 C for 20 minutes” value is “The 1:1 mixture of LAM1 and LAM2, however, cleaves all three DNA sites”; the “cleavage of the non-palindromic LAM1/LAM2 hybrid DNA site by the co-expressed enzyme mixture” value is reported as “The co-expressed enzyme mixture was found to cleave all three sites, including the LAM1/LAM2 hybrid site”.

B10: PDX1 rationally-designed meganuclease (I-CreI derivative) (protein)
chain: MNTKYNKEFLLYLAGFVDGDGSIIAQIKPNQNCKFKHQLQLAFQVTQKTQRRWFLDKLVDEIGVGYVRDRGSVSDYILSEIKPLHNFLTQLQPFLKLKQKQANLVLKIIWRLPSAKESPDKFLEVCTWVDQIAALNDSKTRKTTSETVRAVLDSLSEKKKSSPHHHHHH
Consider B10, for which the “cleavage of a linearized DNA substrate containing the intended non-palindromic recognition sequence by the 1:1 mixture” value in [10] is recorded as “each rationally-designed meganuclease heterodimer cleaves its intended DNA site”.

B11: GLA1 rationally-designed meganuclease (I-CreI derivative) (protein)
chain: MNTKYNKEFLLYLAGFVDGDGSIKAAIKPRQSYKFKHELSLAFQVTQKTQRRWFLDKLVDEIGVGYVYDRGSVSDYQLCEIKPLHNFLTQLQPFLKLKQKQANLVLKIIWRLPSAKESPDKFLEVCTWVDQIAALNDSKTRKTTSETVRAVLDSLSEKKKSSPHHHHHH
For B11, the “cleavage of a linearized DNA substrate containing the intended non-palindromic recognition sequence by the 1:1 mixture” value in [11] is “each rationally-designed meganuclease heterodimer cleaves its intended DNA site”.

B12: BRP1 rationally-designed meganuclease (I-CreI derivative) (protein)
chain: MNTKYNKEFLLYLAGFVDGDGSIKAQIRPRQCRKFKHELELAFQVTQKTQRRWFLDKLVDEIGVGKVYDRGSVSDYELSEIKPLHNFLTQLQPFLKLKQKQANLVLKIIWRLPSAKESPDKFLEVCTWVDQIAALNDSKTRKTTSETVRAVLDSLSEKKKSSPHHHHHH
As to B12, the “cleavage of a linearized DNA substrate containing the intended non-palindromic recognition sequence by the 1:1 mixture” value in series [12] is on record as “each rationally-designed meganuclease heterodimer cleaves its intended DNA site”.

The record behind these values is patent US20150315556.
